From patent US20030203451A1 (Genentech, published 2003) come the findings set out here.

The target of assay [1] is recombinant IL-17E (baculovirus, Examples 33/34) (human) (UniProt Q9H293). Put plainly: SPR (BIAcore 1000), IL-17E immobilized on CM5 chip, IL-17RH1 ECD in solution, 1:1 model.
Assay [2] has as its target T1, IL-17R extracellular domain (residues 1-288), baculovirus, Examples 33/34 (human, UniProt Q96F46 33-320).
T1 construct: range 1-288; also called IL-17R ECD
Put plainly: SPR (BIAcore).

In assay [3] the target is T2, IL-17RH1 (PRO5801) extracellular domain (residues 1-275), baculovirus, Examples 33/34 (human) (UniProt Q9NRM6).
T2 sequence: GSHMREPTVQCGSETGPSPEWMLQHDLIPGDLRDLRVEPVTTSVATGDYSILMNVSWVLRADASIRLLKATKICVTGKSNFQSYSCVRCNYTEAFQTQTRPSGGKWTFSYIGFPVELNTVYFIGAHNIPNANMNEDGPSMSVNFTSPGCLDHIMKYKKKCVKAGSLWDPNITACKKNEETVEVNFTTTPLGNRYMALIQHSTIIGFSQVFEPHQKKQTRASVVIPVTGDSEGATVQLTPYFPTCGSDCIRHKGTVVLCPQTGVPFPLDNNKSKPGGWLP
Briefly: SPR (BIAcore 1000), IL-17RH1 ECD immobilized on CM5 chip, IL-17E in solution, 1:1 model.

The target in assay [4] is T3, IL-17RH1 (PRO5801) expressed on transfected 293 cells (human, UniProt Q9NRM6 18-502).
T3 construct: also called IL-17RH1 expressing cells
T3 sequence: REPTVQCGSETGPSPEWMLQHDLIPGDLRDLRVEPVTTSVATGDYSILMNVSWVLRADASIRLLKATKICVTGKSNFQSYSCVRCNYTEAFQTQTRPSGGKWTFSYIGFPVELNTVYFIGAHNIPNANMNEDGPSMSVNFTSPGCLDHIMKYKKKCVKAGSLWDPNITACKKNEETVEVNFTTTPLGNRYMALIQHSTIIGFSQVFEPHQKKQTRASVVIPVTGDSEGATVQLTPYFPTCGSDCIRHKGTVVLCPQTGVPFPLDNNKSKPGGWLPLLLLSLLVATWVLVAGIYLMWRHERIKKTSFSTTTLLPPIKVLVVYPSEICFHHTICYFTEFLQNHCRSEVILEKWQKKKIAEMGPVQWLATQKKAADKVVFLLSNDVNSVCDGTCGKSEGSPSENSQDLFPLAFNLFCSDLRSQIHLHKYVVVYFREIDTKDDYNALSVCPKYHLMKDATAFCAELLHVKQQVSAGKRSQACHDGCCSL
Put plainly: FACS on 293 cells co-transfected with GFP and IL-17RH1, ligand-Fc detected with PE anti-human Fc antibody, GFP-positive cells.

For assay [5], the target named is T3, IL-17RH1 (PRO5801) expressed on …. Put plainly: flow cytometry competition against IL-17E immunoadhesin on IL-17RH1-transfected 293 cells. (Flow cytometry measures light scatter and fluorescence of single cells or particles in a stream.)
For assay [6], the target named is T1, IL-17R extracellular domain (residues …). Briefly: SPR (BIAcore), IL-17F immobilized, receptor ECD in solution.

Turning to “IL-17RH1 (PRO5801) extracellular domain (residues 1-275), baculovirus, Examples 33/34 (from UniProt Q9NRM6 18-292) (receptor)”, in assay [1], the dissociation constant Kd came to 1.1 nM, the koff turned out to be 0.0007 s⁻¹ and the kon amounted to 670000 M⁻¹ s⁻¹.

B1: recombinant IL-17E (baculovirus, Examples 33/34) (ligand)
chain: GSHMYSHWPSCCPSKGQDTSEELLRWSTVPVPPLEPARPNRHPESCRASEDGPLNSRAISPWRYELDRDLNRLPQDLYHARCLCPHCVSLQTGSHMDPRGNSELLYHNQTVFYRRPCHGEKGTHKGYCLERRLYRVSLACVCVRPRVMG
notes: also called IL-17E (PRO10272); soluble IL-17E
With B1, in assay [2], the binding result is listed as “no binding”. In addition, in assay [3], the dissociation constant Kd was found to be 1.4 nM, the koff amounted to 0.00062 s⁻¹ and the kon was 430000 M⁻¹ s⁻¹.

B2: IL-17E-Fc fusion protein (IL-17E immunoadhesin) (Fc fusion)
chain: YSHWPSCCPSKGQDTSEELLRWSTVPVPPLEPARPNRHPESCRASEDGPLNSRAISPWRYELDRDLNRLPQDLYHARCLCPHCVSLQTGSHMDPRGNSELLYHNQTVFYRRPCHGEKGTHKGYCLERRLYRVSLACVCVRPRVMG
notes: not shown: Fc region of human IgG1, fused in frame at the C-terminus
Take B2: the binding result in assay [4] is “binds”.

B3: His epitope tagged IL-17E (E. coli, refolded) (ligand)
chain: YSHWPSCCPSKGQDTSEELLRWSTVPVPPLEPARPNRHPESCRASEDGPLNSRAISPWRYELDRDLNRLPQDLYHARCLCPHCVSLQTGSHMDPRGNSELLYHNQTVFYRRPCHGEKGTHKGYCLERRLYRVSLACVCVRPRVMG
notes: also called IL-17E 8xHis-tag fusion; not shown: 8xHis-tag fusion
As for B3, the binding result in assay [5] is given as “binds”.

B4: recombinant IL-17F (baculovirus, Examples 33/34) (ligand)
chain: GSHMRKIPKVGHTFFQKPESCPPVPGGSMKLDIGIINENQRVSMSRNIESRSTSPWNYTVTWDPNRYPSEVVQAQCRNLGCINAQGKEDISMNSVPIQQETLVVRRKHQGCSVSFQLEKVLVTVGCTCVTPVIHHVQ
modifications: N-glycosylation at Asn 53 (mature numbering); about 3 kDa carbohydrate per dimer
notes: The same protein was crystallized; also called IL-17F (PRO20110); immobilized IL-17F
Turning to B4, the binding result in assay [6] is recorded as “no binding (tested: up to 1 µM)”.

A word on the Kd: it is the equilibrium constant for the complex coming apart. In general, koff refers to the rate constant with which the complex falls apart. The kon is the second-order rate constant of association.
